B1: FtsA WT (natural protein)
chain: MIKATDRKLVVGLEIGTAKVAALVGEVLPDGMVNIIGVGSCPSRGMDKGGVNDLESVVKCVQRAIDQAELMADCQISSVYLALSGKHISCQNEIGMVPISEEEVTQEDVENVVHTAKSVRVRDEHRVLHVIPQEYAIDYQEGIKNPVGLSGVRMQAKVHLITCHNDMAKNIVKAVERCGLKVDQLIFAGLASSYSVLTEDERELGVCVVDIGGGTMDIAVYTGGALRHTKVIPYAGNVVTSDIAYAFGTPPSDAEAIKVRHGCALGSIVGKDESVEVPSVGGRPPRSLQRQTLAEVIEPRYTELLNLVNEEILQLQEKLRQQGVKHHLAAGIVLTGGAAQIEGLAACAQRVFHTQVRIGAPLNITGLTDYAQEPYYSTAVGLLHYGKESHLNGEAEVEKRVTASVGSWIKRLNSWLRKEF
B2: FtsA WT(1-405)-6xHis (domain or fragment)
chain: MIKATDRKLVVGLEIGTAKVAALVGEVLPDGMVNIIGVGSCPSRGMDKGGVNDLESVVKCVQRAIDQAELMADCQISSVYLALSGKHISCQNEIGMVPISEEEVTQEDVENVVHTAKSVRVRDEHRVLHVIPQEYAIDYQEGIKNPVGLSGVRMQAKVHLITCHNDMAKNIVKAVERCGLKVDQLIFAGLASSYSVLTEDERELGVCVVDIGGGTMDIAVYTGGALRHTKVIPYAGNVVTSDIAYAFGTPPSDAEAIKVRHGCALGSIVGKDESVEVPSVGGRPPRSLQRQTLAEVIEPRYTELLNLVNEEILQLQEKLRQQGVKHHLAAGIVLTGGAAQIEGLAACAQRVFHTQVRIGAPLNITGLTDYAQEPYYSTAVGLLHYGKESHLNGEAEVEKRVTASV
B3: FtsA R286W (1-405)-6xHis (domain or fragment)
chain: MIKATDRKLVVGLEIGTAKVAALVGEVLPDGMVNIIGVGSCPSRGMDKGGVNDLESVVKCVQRAIDQAELMADCQISSVYLALSGKHISCQNEIGMVPISEEEVTQEDVENVVHTAKSVRVRDEHRVLHVIPQEYAIDYQEGIKNPVGLSGVRMQAKVHLITCHNDMAKNIVKAVERCGLKVDQLIFAGLASSYSVLTEDERELGVCVVDIGGGTMDIAVYTGGALRHTKVIPYAGNVVTSDIAYAFGTPPSDAEAIKVRHGCALGSIVGKDESVEVPSVGGRPPWSLQRQTLAEVIEPRYTELLNLVNEEILQLQEKLRQQGVKHHLAAGIVLTGGAAQIEGLAACAQRVFHTQVRIGAPLNITGLTDYAQEPYYSTAVGLLHYGKESHLNGEAEVEKRVTASV

Target: the molecule itself
Test: FRET or BRET

Binding result, binds:
B1
B2
B3
